The nature of the data set: label from the status in PepcDB records.
As for “MSSLRHRRYVLGGLLAAIGVLAAAVLWNVVGTVFFAVTVAYVLYPARQRLVNRGVPRRVASGLLTAAAFLTVVVLLAPIAWTIFRQRGAILEFLNNLPDELPVEAFGFVVTIDVADLVDTTADTLQSIAISLAADAIFLALQLLMFALVLYGLLLRPNAVGRAAFRVTPSPYHDILVALHRRIAGTLYALYVIQAATAVITFPLALIVFYLLGYPDVFVLAVLAALLQFIPIVGPGMLAAGLAGHDVLVGMPHRAVGVIILGPLFVGLLPDLLVRPRLAASKAKLPASLYFVGFVGGVLTVGVIGIIAGPLVVALLVEAVNLLSERNQSAA”, the protein production result is recorded as “failed”. The value for “MSVLSIVTVPDKRLSLCSEEVEKVDQSIRKLVDDMFETMHANQGLGLAAVQVGVHKRILVMNVPEEFEDSEDIENVEDKIEGYELYGGPYCIINPKIVDISQEKVKLKEGCLSVPGYFDYIVRPQRIAVQYLDYNGNECIIKAQGWLARCLQHEIDHLNGTVFLKYLSKFKRDFAIEKVKKKERTDLI” was “not failed”. The same measure for “MTAVSSVYAQRLLITLFLVSFGIYLFVATVTYTPFDPGWMHISSDTQNVSNASGVAGAWIADLMFGFLGWASLLIPIFLFIEAIQIWWPRSFLTRPFRYAAQFFIILATSTLLYLYWNVPADTLENASGGIIGFEVGQSLSGLLTIYGATLFLVAFWVLLITLAFGIQWNRTWATLKATPAYLQDLFYKNVSPNESDYDLTEQPKKTASTSKTTVASEQNHQDQVHDQHLEQTTRTDQKAFDTTTKNFVSDEMVEKLFADVVAKEQYAQQQVQAVNTSIEDPAFEQTIQKAHQLEKEAKRLVPTGEVWKALQTDDSTHKQEIDALLRAADDNEPSVTPMTSDELLANLKAQQAQQNHTQPNNHTAKLNWNDDQIFDELLAAMPNSKIGSDIHTPFVEHREDTTPDHTDHLIQQVEQTLQASSNTLQPKNMTNLDEAEEQSDLLTETVEENPSTHYAGQPQNRSFTSNELTAKDQEKLSKEEFIEAWQETAGKPVEDDFDFDAPLTDASGRPMSRAMQVAQKRRDLPTLPGLELLDKVDPNKKVNFTVEQLERLSELLEIKLQEFNVKAKVVEAQPGPVVTRFELDLAPGVKASKVTNISRDLARSMSMASVRVVEVIPGKPYIGIEVPNSSREMVRLIELLETASFRDPAGLLSMAMGKDISGNPVITDLGKAPHMLVAGTTGSGKSVAVNSMILSMLLKYTPDQLRLILIDPKQLELANYNDIPHLLTPVVTDMKDAVSALNWCVNEMERRYKLMSFLKIRKLADYNRKVEEAIANGEDLIDPTWKPSDSATQERAPRLQPLPSIVIVADEFADMIMQVGKKAEEMITRLAQKSRAAGIHLLLATQRPSVDVITGLIKANIPTRVALRVNSKIDSRTILDAGGAEDLLGHGDMLFLGPGKIEPERVHGAFIGDDEVNRICDAWRERGEPNYVDEILTPFDEEPTSRGFEDGGEGASDRDMLYDQCVAFVLETRKASTSSLQRKFSLGYNRAARIIDQMEENGIVSAMGANGKREILV”: “failed”; for “MSESAKVWLVTGASSGFGRAIAEAAVAAGDTVIGTARRTEALDDLVAAYPDRAEAISLDVTDGERIDVVAADVLARYGRVDVLVNNAGRTQVGAFEETTERELRDLFELHVFGPARLTRALLPQMRERGSGSVVNISSFGGQLSFAGFSAYSATKAALEQLSEGLADEVAPFGIKVLIVEPGAFRTNLFGKGAAYFSEENPAYAEKVGPTRQLVQGSDGSQPGDPAKAAAAIRLALDAEKTPLRLALGGDAVDFLTGHLDSVRAELTEWEKVSRGTDFDTE”: “not failed”; for “VEPVPDTHLRGITCLDHENEKVNMYCVSDDQLICALCKLVGRHRDHQVASLNDRFEKLKQTLEMNLTNLVK”: “not failed”.

On to “MNHRLAGIISPLGHITTDPIRSSSVNPSSPVYYKTIVNHFKSQTGNHVSPGLTNQEISAVESSHGFSFPLDLRSILQTGLPVGTNFPNWRTGSNRNNLLLPLLNLSQHVVRNGFWVDSWGIRPGNDAEALSLVKKLIEIAPVLVPVYGDFYVPSTTPNLAGNPVFQIDGDGVRELSCDVVGFLKGIGRSETPTEDRRRRRRPRRVEFWSDVAEGWRFVVARDYTRDWWSALGFEGLTACLDDAFWKLREAGWTEDDVRDMMMMDSVDQNTCIQQQTQTQSRDVVYAFGDEGMNERDRDTCTEDEDHQKGEVTTLRHLLLYDRLMS”, for which the protein production entry is on record as “failed”. The same measure for “MILLTYLIGILIGLSLTAPPGPVNSVISTESMKSKAHGVSVGAGAMTADLVFFVIVFRFGAFIPVLALHALYLAGAVLLLYISYSVLKSKISRRTRKGNYLVGLTMGITNPFQILWWMTVGLFFIRYFHIASIAGLFTGIIIWILSFPFVMNKYARRFERYVKIFSFAVLFSFAIYLLYSGVVYFLR”: “failed”. The value for “MEGNSDSMILVTVNPKTKKTTMTSLERDILVKLSGSKTNDQTGYDAKLNAAYAAGGAKMAIMTVQDMLDIKIDKYVQINMEGLVQLVDAVGGITVTNHFDFPISIEEHEPEFTASVEPGTHKINGEQALVYSRMRYDDPDGDYGRQKRQREVISKVLKKILALDSVSKYRKILSAVSKNMQTNIEISSSTIPKLLGYSDALKSIRTYQLKGEGTTIDGGSYQLVTSKELLKAQNRIKGQLGLKKSTAENLKTTASLYENFYGGDTSIYDSSSSASDYSSSGNYSGSSSDYGSSSSYGSNSSSGSSSDYSGQNSYNQGNYQQPAAGTGIGNLEHHHHHH” was “not failed”; that for “MNRVDLSIFIPDSLTAETGDLKIKTYKVVLIARAASIFGVKRIVIYHDDADGEARFIRDILTYMDTPQYLRRKVFPIMRELKHVGILPPLRTPHHPTGKPVTGEYRQGLTVKRVKKGTLVDIGADKLALCREKLTVNRIMSFRVVRLGKEILIEPDEPEDRYWGYEVLDTRRNLAESLKTVGADVVVATSRNASPITSILDEVKTRMRGAREAAILFGGPYKGLPEIDADIWVNTLPGQCTETVRTEEAVLATLSVFNMLTQIDEKDE” was “not failed”.

With “MAPKKIGAGKGDSSILAKISNYDIVSQGRRAACDAVYVSKKLLKSTGKAAWIAGTTFLILAVPLILELEQDHRLGEIDFEQASLLGTPPVGAML”, the protein production result is given as “failed”. The same measure for “MGHHHHHHSHMALRDLCVVLLNGQHLEVKCDVESTVGAVFNAVTSFANLEELTYFGLAYMKSKEFFFLDSETR”: “failed”. The value for “MYIRGVGDIIYFLQQLHPLEQALLAGIFTWGMTALGAASVFFTREVSRKVLDSMLGFTAGVMIAASYWSLLAPAIEMSEGRSIPAWLPAVLGFLLGGLFLRGIDKILPHLQFGSATEAAEGLKTSWRRNTLLVLAVTLHNIPEGLAVGVAFGAAASGYMYSLPAAIALTTGIGIQNFPEGLVVSVPLRREGMSCFKSFNYGQASAIVEPIASVIGVAAVMLVRPILPYALAFAAGAMIFVVVEEIIPESQHGGNAPLATIGTMIGFSVMMVLDVAFG” was “failed”. The value for “MKKTIEKILKDIIDATSITDMCDKSVCHWLQPVVDTIVFPEYYLFSSNHLKENIISLLIVLGVLLIFGLIVEEMMKRIFRKNEEKYMWVHKIFEKVIVAFLLFYSMKTIIYFIALKHHSF” was “failed”; that for “MLIKLTGGTVYDPANGIDGQVRNLFIRDGRIVHSLNGATPDQEYDLRGKVVMAGAIDMHTHIGGGKVTIARNLLPELEHHHHHH” was “not failed”. For “KHLSLTPELYKYLLDISLREHPALAALRKETSTMELANMQVAPEQAQFMQMLIRLTRAKKVLELGTFTGYSALAMSLALPDDGQVITCDINEGWTKHAHPYWREAKQEHKIKLRLGPALDTLHSLLNEGGEHQFDFIFIDADKTNYLNYYELALKLVTPKGLIAIDNIFWDGKVIDPNDTSGQTREIKKLNQVIKNDSRVFVSLLAIADGMFLVQPI”, the protein production entry is recorded as “not failed”.

Turning to “MVLEIGLPPLHVGFIMAYSLLAASLSIFLGLALAEFDVVAHAVLAGYYAGLFFPMSVYTNFFTAAASGAPRPAKEYLPLLLAFILAAVAPLHGSTSTLATLFLLSQAFLLYYMALQAGRFRRDALARFSALAPPISGTGASLILLSSSQLGFLDALMSLTLAFSTPVPLLMAPMAIGASIYGLGPARGKEAIIRLSPALTAIPASILSVLTLSINPYLLPLSLYLVVMRPWRIVSELISVRRPKPPQLYLLSVHAATLAAIVSSLILASNSNIVEAGHAIMIGVIAPHALLHSIVRGGEIPFTRRPRSWTPIPPLLLAASTPLRFASKEASLALALLALSIHVASILDPHPRNIIPRAFRVEGGKQQSATTGG”, the protein production result is given as “failed”. The value for “MRPCCHWRPGPSGCHCCAGCGLAAEARRARERRGEAVIGLCGALAGEVRAGRQPGEALLHAAGDSGGLGDAQAAVLAAARFGGDVPGALADAAGQPGAEGLLGLGACWRVAVDRGAGLAAGLDRLEAALRAERDQRAELRAQLAGARSTAVMLAALPVLGLLLGTALGADPLHVVLHTGAGLACLLAGAVLEGAGLWWALRIVRGAEAA” was “failed”; that for “GSSGSSGPTMEGPLRRKTLLKEGRKPALSSWTRYWVVLSGATLLYYGAKSLRGTDRKHYKSTPGKKVSIVGWMVQLPDDPEHPDIFQLNNPDKGNVYKFQTGSRFHAILWHKHLDDACKSSRPQVPANLMSFE” was “not failed”; that for “MNQVEMTEFPVGKPQEALYGVASTPDGALWFTLAKGNAIGRLSPDGAVSRFPLPHADGQPTTITCGPDGRPWFTLSSANAIGRLAPDGALRMFELPRPASRPFGIAGGHDGCLWFAEMAGDRIGRITIDGDIEEYDLPVKGGYPSCMAAGRDGLMWFTLNQAGAVGSISATAAPRIFPLGAADAAPVGIASDAQGALWIAQAGNGAIARFDAGGRITEFPLHSRAARPHAIAADAAGNLWFTEWGANRIGRISEAGDLAGYELAAPGSEPHGIAIDPHGCVWAALETGRLVRLQASPRDLEHHHHHH” was “failed”. The value for “MPNQVLFCITKMRYEEKRIYHYLEESGLSIKIMLDSSNLDEVVAHNSDYCLCIVRVMSQHRAFRIAEYMEALGIPTLNSSRAIQICADKAIQALILANRDVIKQPHFSILRNYEDLSNFNGKMVVKPVSSSWGRGISLIENEDALTTWKISHQELDIQNQNLPYLIQEFIDKPNYDVRIVIINTKPVVAFKRVSANNWKTNTHLGATVVPIVIDDSINKIVTEIIKVVGPGIYGLDLMKNRQNEWIFCEINQNPEFAHSWKIHHVDVAEKIAQYVSSKVKVGQKNASTHLEHHHHHH” was “failed”; that for “MVTNKLITLLPDLATFIVVVNEGSFTAAAKKLGVTPSALSKLITRLENALSVKLFERTTRSLLITESGKKIYQQSVIMVEAAQQAVDISSSEHTVPSGSLTVAAPKAFLTIVLQPLITPFLTKYPKIQLKLRASDGDIDMIAQGIDVVFRLTDKPTEGLVMKEIGKVNLSLCASPTYLEERGIPHLPQELANHDCLFLGETTTDHIWEFVKGTESHVIAVSGRYAVNHSQMRLNGVKDGFGIGIFPDFVIKEALANNEVISVLSDWQIKGNYHGVIAMQYAQNKYIPSRLKVFTEFVKENLMKSKVNDERT” was “not failed”. The value for “MAAIPALDPEAEPSMDVILVGSSELSSSVSPGTGRDLIAYEVKANQRNIEDICICCGSLQVHTQHPLFEGGICAPCKDKFLDALFLYDDDGYQSYCSICCSGETLLICGNPDCTRCYCFECVDSLVGPGTSGKVHAMSNWVCYLCLPSSRSGLLQRRRKWRSQLKAFYDRESENPLEMFETVPVWRRQPVRVLSLFEDIKKELTSLGFLESGSDPGQLKHVVDVTDTVRKDVEEWGPFDLVYGATPPLGHTCDRPPSWYLFQFHRLLQYARPKPGSPRPFFWMFVDNLVLNKEDLDVASRFLEMEPVTIPDVHGGSLQNAVRVWSNIPAIRSSRHWALVSEEELSLLAQNKQSSKLAAKWPTKLVKNCFLPLREYFKYFSTELTSSL” was “failed”.

Source of the values: a protein production outcome set (Wang et al. 2014).
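Further: failed if final PepcDB status was selected cloned or expressed and not failed if soluble or beyond.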
